Source: the supplement of paper PMC9112550, “Optimization of the antimicrobial peptide Bac7 by deep mutational scanning” (BMC Biology, 2022)

System: Escherichia coli TOP10
Experiment: shrunken log2 fold change of peptide-encoding DNA abundance (4.5 h post-induction vs induction); higher = less antimicrobial activity (less host growth inhibition)
Conditions: time post-induction: 4.5 h; library: site-saturation at positions 5, 18, 19, 20
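Further: peptides expressed intracellularly from a pBAD plasmid library in pooled LB shake-flask culture, induced with 0.3% L-arabinose, DNA abundance read by NGS, three biological replicates, DESeq2 with apeglm shrinkage.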

Sequence	shrunken log2 fold change
RRIRMRPPRLPRPRPRPKISPRP	0.0938
RRIRPRPPRLPRPRPRPTASPRP	0.259
RRIRIRPPRLPRPRPRPRNQPRP	-0.542
RRIRQRPPRLPRPRPRPDMNPRP	-0.654
RRIRFRPPRLPRPRPRPMDAPRP	0.111
RRIRPRPPRLPRPRPRPEMGPRP	0.268
RRIRRRPPRLPRPRPRPIIWPRP	-0.0862
RRIRCRPPRLPRPRPRPTVYPRP	-0.915
RRIRFRPPRLPRPRPRPRYQPRP	-0.738
RRIRMRPPRLPRPRPRPHHWPRP	0.439
RRIRWRPPRLPRPRPRPVKFPRP	0.0171
RRIRLRPPRLPRPRPRPYYNPRP	-1.18
RRIRHRPPRLPRPRPRPLKQPRP	-0.128
RRIRERPPRLPRPRPRPKRMPRP	-0.0497
RRIRTRPPRLPRPRPRPDSYPRP	-0.0896
RRIRGRPPRLPRPRPRPCKHPRP	0.112
RRIRSRPPRLPRPRPRPVQLPRP	0.348
RRIRFRPPRLPRPRPRPDLVPRP	-0.0465
RRIRHRPPRLPRPRPRPKNMPRP	-0.231
RRIRPRPPRLPRPRPRPQTPPRP	0.313

Sequence	shrunken log2 fold change
RRIRWRPPRLPRPRPRPPTWPRP	0.802
RRIRYRPPRLPRPRPRPGARPRP	-0.00825
RRIRGRPPRLPRPRPRPKMPPRP	0.434
RRIRDRPPRLPRPRPRPFSVPRP	-0.0199
RRIRLRPPRLPRPRPRPHTCPRP	-0.339
RRIRRRPPRLPRPRPRPIPMPRP	0.287
RRIRERPPRLPRPRPRPSWMPRP	-0.416
RRIRIRPPRLPRPRPRPIQFPRP	-0.048
RRIRHRPPRLPRPRPRPVPFPRP	-0.136
RRIRCRPPRLPRPRPRPHGPPRP	0.0798
RRIRVRPPRLPRPRPRPHTSPRP	-0.643
RRIRGRPPRLPRPRPRPMWDPRP	0.639
RRIRSRPPRLPRPRPRPHIEPRP	-0.295
RRIRHRPPRLPRPRPRPCYSPRP	-0.0983
RRIRHRPPRLPRPRPRPFIRPRP	0.00659
RRIRTRPPRLPRPRPRPGNWPRP	0.275
RRIRRRPPRLPRPRPRPGIGPRP	-0.00887
RRIRPRPPRLPRPRPRPMPFPRP	-0.349
RRIRTRPPRLPRPRPRPWYFPRP	-0.432
RRIRYRPPRLPRPRPRPYHEPRP	-0.194

Sequence	shrunken log2 fold change
RRIRSRPPRLPRPRPRPVKEPRP	0.0656
RRIRCRPPRLPRPRPRPMIKPRP	-0.497
RRIRNRPPRLPRPRPRPPGDPRP	0.127
RRIRHRPPRLPRPRPRPTHKPRP	0.0457
RRIRKRPPRLPRPRPRPPNFPRP	0.0909
RRIRGRPPRLPRPRPRPCYDPRP	0.156
RRIRIRPPRLPRPRPRPSVYPRP	-0.277
RRIRSRPPRLPRPRPRPMETPRP	0.585
RRIRSRPPRLPRPRPRPNVQPRP	-0.335
RRIRCRPPRLPRPRPRPVPVPRP	0.0927
RRIRSRPPRLPRPRPRPENIPRP	-0.278
RRIRVRPPRLPRPRPRPQAMPRP	-0.00096
RRIRVRPPRLPRPRPRPHCQPRP	-0.401
RRIRNRPPRLPRPRPRPCREPRP	-0.109
RRIRNRPPRLPRPRPRPQVNPRP	-0.129
RRIRFRPPRLPRPRPRPIRMPRP	-0.191
RRIRERPPRLPRPRPRPLYQPRP	-0.176
RRIRTRPPRLPRPRPRPEGNPRP	-0.311
RRIRGRPPRLPRPRPRPNEYPRP	0.249
RRIRCRPPRLPRPRPRPESFPRP	0.0159
